From patent publication US20220306695A1, “COMPSTATIN ANALOGUES AND THEIR MEDICAL USES” (priority 2019, published 2022) come the findings set out here.

Starred links: 1 amine or outer side, 2 acyl side, 3 side chain; linkers in the order of their positions; H or OH if unused. Positions of bridges follow the written chain, without caps; N, C: chain ends. Non-standard residues stand in square brackets, D forms with d. Groups on a side chain read outwards from the residue. *: point of attachment. Trp(1-Me) = Cn1cc(C[C@H](N)C(=O)O)c2ccccc21; C18 diacid = O=C(O)CCCCCCCCCCCCCCCCC(=O)*; γGlu = O=C(O)[C@H](CCC(=O)[*:2])N[*:1]; hCys = N[C@@H](CCS)C(=O)O

B1: Compound 27 (peptide)
peptide: Ac-ICIWQDWGEHRCEGE-NH2
modifications: disulfide 2-12
SMILES: CC[C@H](C)[C@H](NC(C)=O)C(=O)N[C@H]1CSSC[C@@H](C(=O)N[C@@H](CCC(=O)O)C(=O)NCC(=O)N[C@@H](CCC(=O)O)C(N)=O)NC(=O)[C@H](CCCNC(=N)N)NC(=O)[C@H](Cc2c[nH]cn2)NC(=O)[C@H](CCC(=O)O)NC(=O)CNC(=O)[C@H](Cc2c[nH]c3ccccc23)NC(=O)[C@H](CC(=O)O)NC(=O)[C@H](CCC(N)=O)NC(=O)[C@H](Cc2c[nH]c3ccccc23)NC(=O)[C@H]([C@@H](C)CC)NC1=O
B2: Compound 30 (peptide)
peptide: Ac-EGEICIWQDWGEHRCT-NH2
modifications: disulfide 5-15
SMILES: CC[C@H](C)[C@@H]1NC(=O)[C@@H](NC(=O)[C@@H](NC(=O)[C@H](CCC(=O)O)NC(=O)CNC(=O)[C@H](CCC(=O)O)NC(C)=O)[C@@H](C)CC)CSSC[C@@H](C(=O)N[C@H](C(N)=O)[C@@H](C)O)NC(=O)[C@H](CCCNC(=N)N)NC(=O)[C@H](Cc2c[nH]cn2)NC(=O)[C@H](CCC(=O)O)NC(=O)CNC(=O)[C@H](Cc2c[nH]c3ccccc23)NC(=O)[C@H](CC(=O)O)NC(=O)[C@H](CCC(N)=O)NC(=O)[C@H](Cc2c[nH]c3ccccc23)NC1=O
B3: Compound 18 (peptide)
peptide: Ac-ICIWQDWGRHRCT-NH2
modifications: disulfide 2-12
SMILES: CC[C@H](C)[C@H](NC(C)=O)C(=O)N[C@H]1CSSC[C@@H](C(=O)N[C@H](C(N)=O)[C@@H](C)O)NC(=O)[C@H](CCCNC(=N)N)NC(=O)[C@H](Cc2c[nH]cn2)NC(=O)[C@H](CCCNC(=N)N)NC(=O)CNC(=O)[C@H](Cc2c[nH]c3ccccc23)NC(=O)[C@H](CC(=O)O)NC(=O)[C@H](CCC(N)=O)NC(=O)[C@H](Cc2c[nH]c3ccccc23)NC(=O)[C@H]([C@@H](C)CC)NC1=O
B4: Compound 26 (peptide)
peptide: Ac-ICIWQDWGEHRCTE-NH2
modifications: disulfide 2-12
SMILES: CC[C@H](C)[C@H](NC(C)=O)C(=O)N[C@H]1CSSC[C@@H](C(=O)N[C@H](C(=O)N[C@@H](CCC(=O)O)C(N)=O)[C@@H](C)O)NC(=O)[C@H](CCCNC(=N)N)NC(=O)[C@H](Cc2c[nH]cn2)NC(=O)[C@H](CCC(=O)O)NC(=O)CNC(=O)[C@H](Cc2c[nH]c3ccccc23)NC(=O)[C@H](CC(=O)O)NC(=O)[C@H](CCC(N)=O)NC(=O)[C@H](Cc2c[nH]c3ccccc23)NC(=O)[C@H]([C@@H](C)CC)NC1=O
B5: Compound 161 (peptide)
peptide: Ac-EFAI[Trp(1-Me)]QDWGEHR[hCys]EGEK([γGlu-Gly-γGlu-C18 diacid])-NH2
modifications: thioether 3-13
SMILES: CC[C@H](C)[C@@H]1NC(=O)[C@@H](NC(=O)[C@H](Cc2ccccc2)NC(=O)[C@H](CCC(=O)O)NC(C)=O)CSCC[C@@H](C(=O)N[C@@H](CCC(=O)O)C(=O)NCC(=O)N[C@@H](CCC(=O)O)C(=O)N[C@@H](CCCCNC(=O)CC[C@H](NC(=O)CNC(=O)CC[C@H](NC(=O)CCCCCCCCCCCCCCCCC(=O)O)C(=O)O)C(=O)O)C(N)=O)NC(=O)[C@H](CCCNC(=N)N)NC(=O)[C@H](Cc2c[nH]cn2)NC(=O)[C@H](CCC(=O)O)NC(=O)CNC(=O)[C@H](Cc2c[nH]c3ccccc23)NC(=O)[C@H](CC(=O)O)NC(=O)[C@H](CCC(N)=O)NC(=O)[C@H](Cc2cn(C)c3ccccc23)NC1=O
B6: Compound 31 (peptide)
peptide: Ac-ESEICIWQDWGEHRCT-NH2
modifications: disulfide 5-15
SMILES: CC[C@H](C)[C@@H]1NC(=O)[C@@H](NC(=O)[C@@H](NC(=O)[C@H](CCC(=O)O)NC(=O)[C@H](CO)NC(=O)[C@H](CCC(=O)O)NC(C)=O)[C@@H](C)CC)CSSC[C@@H](C(=O)N[C@H](C(N)=O)[C@@H](C)O)NC(=O)[C@H](CCCNC(=N)N)NC(=O)[C@H](Cc2c[nH]cn2)NC(=O)[C@H](CCC(=O)O)NC(=O)CNC(=O)[C@H](Cc2c[nH]c3ccccc23)NC(=O)[C@H](CC(=O)O)NC(=O)[C@H](CCC(N)=O)NC(=O)[C@H](Cc2c[nH]c3ccccc23)NC1=O
B7: Compound 16 (peptide)
peptide: Ac-ICIWQEWGEHRCT-NH2
modifications: disulfide 2-12
SMILES: CC[C@H](C)[C@H](NC(C)=O)C(=O)N[C@H]1CSSC[C@@H](C(=O)N[C@H](C(N)=O)[C@@H](C)O)NC(=O)[C@H](CCCNC(=N)N)NC(=O)[C@H](Cc2c[nH]cn2)NC(=O)[C@H](CCC(=O)O)NC(=O)CNC(=O)[C@H](Cc2c[nH]c3ccccc23)NC(=O)[C@H](CCC(=O)O)NC(=O)[C@H](CCC(N)=O)NC(=O)[C@H](Cc2c[nH]c3ccccc23)NC(=O)[C@H]([C@@H](C)CC)NC1=O
B8: Compound 12 (peptide)
peptide: Ac-ICIWQDWGAHRCE-NH2
modifications: disulfide 2-12
SMILES: CC[C@H](C)[C@H](NC(C)=O)C(=O)N[C@H]1CSSC[C@@H](C(=O)N[C@@H](CCC(=O)O)C(N)=O)NC(=O)[C@H](CCCNC(=N)N)NC(=O)[C@H](Cc2c[nH]cn2)NC(=O)[C@H](C)NC(=O)CNC(=O)[C@H](Cc2c[nH]c3ccccc23)NC(=O)[C@H](CC(=O)O)NC(=O)[C@H](CCC(N)=O)NC(=O)[C@H](Cc2c[nH]c3ccccc23)NC(=O)[C@H]([C@@H](C)CC)NC1=O
B9: Compound 10 (peptide)
peptide: Ac-ESSAYCIWQDWGEHRCT-NH2
modifications: disulfide 6-16
SMILES: CC[C@H](C)[C@@H]1NC(=O)[C@@H](NC(=O)[C@H](Cc2ccc(O)cc2)NC(=O)[C@H](C)NC(=O)[C@H](CO)NC(=O)[C@H](CO)NC(=O)[C@H](CCC(=O)O)NC(C)=O)CSSC[C@@H](C(=O)N[C@H](C(N)=O)[C@@H](C)O)NC(=O)[C@H](CCCNC(=N)N)NC(=O)[C@H](Cc2c[nH]cn2)NC(=O)[C@H](CCC(=O)O)NC(=O)CNC(=O)[C@H](Cc2c[nH]c3ccccc23)NC(=O)[C@H](CC(=O)O)NC(=O)[C@H](CCC(N)=O)NC(=O)[C@H](Cc2c[nH]c3ccccc23)NC1=O
B10: Compound 25 (peptide)
peptide: Ac-ICIWQDWGEHRCTEA-NH2
modifications: disulfide 2-12
SMILES: CC[C@H](C)[C@H](NC(C)=O)C(=O)N[C@H]1CSSC[C@@H](C(=O)N[C@H](C(=O)N[C@@H](CCC(=O)O)C(=O)N[C@@H](C)C(N)=O)[C@@H](C)O)NC(=O)[C@H](CCCNC(=N)N)NC(=O)[C@H](Cc2c[nH]cn2)NC(=O)[C@H](CCC(=O)O)NC(=O)CNC(=O)[C@H](Cc2c[nH]c3ccccc23)NC(=O)[C@H](CC(=O)O)NC(=O)[C@H](CCC(N)=O)NC(=O)[C@H](Cc2c[nH]c3ccccc23)NC(=O)[C@H]([C@@H](C)CC)NC1=O
B11: Compound 32 (peptide)
peptide: Ac-SEICIWQDWGEHRCTEA-NH2
modifications: disulfide 4-14
SMILES: CC[C@H](C)[C@@H]1NC(=O)[C@@H](NC(=O)[C@@H](NC(=O)[C@H](CCC(=O)O)NC(=O)[C@H](CO)NC(C)=O)[C@@H](C)CC)CSSC[C@@H](C(=O)N[C@H](C(=O)N[C@@H](CCC(=O)O)C(=O)N[C@@H](C)C(N)=O)[C@@H](C)O)NC(=O)[C@H](CCCNC(=N)N)NC(=O)[C@H](Cc2c[nH]cn2)NC(=O)[C@H](CCC(=O)O)NC(=O)CNC(=O)[C@H](Cc2c[nH]c3ccccc23)NC(=O)[C@H](CC(=O)O)NC(=O)[C@H](CCC(N)=O)NC(=O)[C@H](Cc2c[nH]c3ccccc23)NC1=O
B12: Compound 14 (peptide)
peptide: Ac-ESSAICIWQDWGEHRCTGAES-NH2
modifications: disulfide 6-16
SMILES: CC[C@H](C)[C@H](NC(=O)[C@H](C)NC(=O)[C@H](CO)NC(=O)[C@H](CO)NC(=O)[C@H](CCC(=O)O)NC(C)=O)C(=O)N[C@H]1CSSC[C@@H](C(=O)N[C@H](C(=O)NCC(=O)N[C@@H](C)C(=O)N[C@@H](CCC(=O)O)C(=O)N[C@@H](CO)C(N)=O)[C@@H](C)O)NC(=O)[C@H](CCCNC(=N)N)NC(=O)[C@H](Cc2c[nH]cn2)NC(=O)[C@H](CCC(=O)O)NC(=O)CNC(=O)[C@H](Cc2c[nH]c3ccccc23)NC(=O)[C@H](CC(=O)O)NC(=O)[C@H](CCC(N)=O)NC(=O)[C@H](Cc2c[nH]c3ccccc23)NC(=O)[C@H]([C@@H](C)CC)NC1=O
B13: Compound 22 (peptide)
peptide: Ac-ICIWQDWGEHRCE-NH2
modifications: disulfide 2-12
SMILES: CC[C@H](C)[C@H](NC(C)=O)C(=O)N[C@H]1CSSC[C@@H](C(=O)N[C@@H](CCC(=O)O)C(N)=O)NC(=O)[C@H](CCCNC(=N)N)NC(=O)[C@H](Cc2c[nH]cn2)NC(=O)[C@H](CCC(=O)O)NC(=O)CNC(=O)[C@H](Cc2c[nH]c3ccccc23)NC(=O)[C@H](CC(=O)O)NC(=O)[C@H](CCC(N)=O)NC(=O)[C@H](Cc2c[nH]c3ccccc23)NC(=O)[C@H]([C@@H](C)CC)NC1=O
B14: Compound 17 (peptide)
peptide: Ac-ICIWQDWGDHRCT-NH2
modifications: disulfide 2-12
SMILES: CC[C@H](C)[C@H](NC(C)=O)C(=O)N[C@H]1CSSC[C@@H](C(=O)N[C@H](C(N)=O)[C@@H](C)O)NC(=O)[C@H](CCCNC(=N)N)NC(=O)[C@H](Cc2c[nH]cn2)NC(=O)[C@H](CC(=O)O)NC(=O)CNC(=O)[C@H](Cc2c[nH]c3ccccc23)NC(=O)[C@H](CC(=O)O)NC(=O)[C@H](CCC(N)=O)NC(=O)[C@H](Cc2c[nH]c3ccccc23)NC(=O)[C@H]([C@@H](C)CC)NC1=O

Sequence of Human C3 (P01024 23-1663 limits assumed): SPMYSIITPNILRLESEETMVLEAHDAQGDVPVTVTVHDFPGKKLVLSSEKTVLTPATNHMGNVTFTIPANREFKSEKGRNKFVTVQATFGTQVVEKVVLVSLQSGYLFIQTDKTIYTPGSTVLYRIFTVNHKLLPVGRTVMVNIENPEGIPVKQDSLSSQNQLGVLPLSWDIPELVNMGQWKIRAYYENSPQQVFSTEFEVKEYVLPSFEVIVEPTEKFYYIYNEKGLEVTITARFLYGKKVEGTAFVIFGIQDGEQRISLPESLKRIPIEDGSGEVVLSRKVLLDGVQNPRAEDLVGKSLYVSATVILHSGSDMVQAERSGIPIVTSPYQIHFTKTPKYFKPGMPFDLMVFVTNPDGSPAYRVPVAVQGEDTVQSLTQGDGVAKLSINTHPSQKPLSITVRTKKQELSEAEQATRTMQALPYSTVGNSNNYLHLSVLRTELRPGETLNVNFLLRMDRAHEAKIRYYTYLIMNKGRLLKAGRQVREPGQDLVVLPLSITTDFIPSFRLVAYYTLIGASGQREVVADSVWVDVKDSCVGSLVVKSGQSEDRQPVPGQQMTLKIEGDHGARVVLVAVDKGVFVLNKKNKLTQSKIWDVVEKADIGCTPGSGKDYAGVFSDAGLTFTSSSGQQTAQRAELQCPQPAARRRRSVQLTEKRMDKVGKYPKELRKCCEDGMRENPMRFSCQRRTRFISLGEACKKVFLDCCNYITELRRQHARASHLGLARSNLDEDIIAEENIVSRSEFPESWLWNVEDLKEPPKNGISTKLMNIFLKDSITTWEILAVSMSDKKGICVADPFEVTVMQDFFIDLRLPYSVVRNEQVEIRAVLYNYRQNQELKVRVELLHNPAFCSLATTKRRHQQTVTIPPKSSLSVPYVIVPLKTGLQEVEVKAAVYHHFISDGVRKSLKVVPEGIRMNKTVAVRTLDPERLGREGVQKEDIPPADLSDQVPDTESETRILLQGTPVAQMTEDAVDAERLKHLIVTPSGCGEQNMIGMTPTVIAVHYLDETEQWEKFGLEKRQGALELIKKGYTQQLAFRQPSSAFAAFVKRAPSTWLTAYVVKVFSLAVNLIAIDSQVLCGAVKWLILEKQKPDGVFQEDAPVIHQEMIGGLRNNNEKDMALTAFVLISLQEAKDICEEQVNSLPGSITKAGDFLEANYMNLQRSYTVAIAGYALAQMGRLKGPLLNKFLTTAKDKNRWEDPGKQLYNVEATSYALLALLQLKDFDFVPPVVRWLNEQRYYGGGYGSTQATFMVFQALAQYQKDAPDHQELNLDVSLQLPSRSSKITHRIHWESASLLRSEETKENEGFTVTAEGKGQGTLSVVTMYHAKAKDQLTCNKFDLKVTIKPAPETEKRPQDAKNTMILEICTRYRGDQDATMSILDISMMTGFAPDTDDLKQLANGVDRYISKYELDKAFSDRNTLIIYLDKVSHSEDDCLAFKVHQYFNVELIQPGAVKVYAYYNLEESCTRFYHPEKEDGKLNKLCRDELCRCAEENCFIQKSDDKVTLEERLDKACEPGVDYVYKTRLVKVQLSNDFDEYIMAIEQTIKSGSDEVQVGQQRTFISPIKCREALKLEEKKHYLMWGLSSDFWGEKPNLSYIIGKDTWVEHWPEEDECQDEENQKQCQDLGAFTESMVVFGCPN

The test concerns the target Human C3 (human, UniProt P01024 23-1663). Nature of the test: cell-based or functional assay.
Take B1: the “IC50[nM], inhibition of hemolysis” value was less than 100 nM.

On to B2, for which the “IC50[nM], inhibition of hemolysis” value was less than 100 nM.

For the molecule B3, the “IC50[nM], inhibition of hemolysis” value was less than 100 nM. For B4, the “IC50[nM], inhibition of hemolysis” value is less than 100 nM. B5: the “IC50[nM], inhibition of hemolysis” value was less than 100 nM. For the molecule B6, the “IC50[nM], inhibition of hemolysis” value is less than 100 nM.

For the molecule B7, the “IC50[nM], inhibition of hemolysis” value is less than 100 nM. With B8 the figure was less than 100 nM. Turning to B9, the “IC50[nM], inhibition of hemolysis” value is less than 100 nM.

As for B10, the “IC50[nM], inhibition of hemolysis” value is less than 100 nM. B11: the “IC50[nM], inhibition of hemolysis” value is less than 100 nM. Take B12: the “IC50[nM], inhibition of hemolysis” value is less than 100 nM. As for B13, the “IC50[nM], inhibition of hemolysis” value was less than 100 nM. With B14 the figure was less than 100 nM.
